Laboratory results: publication PMC12269619, “In silico improvement of affinity for highly protective anti-malarial antibodies” (iScience, 2025)
Ends that are not written are not given here.

Biological target: T1, Biotinylated junctional peptide Pep21 (PfCSP peptide 21) (Plasmodium falciparum 3D7, UniProt Q7K740, also: biotinylated, position not given here)
T1 construct: Plasmodium falciparum circumsporozoite protein (PfCSP), junctional region, residues 101-115; source: synthetic peptide, bought: Genscript
T1 chain: NPDPNANPNVDPNAN
Experiment: BLI; Octet Red384, biotinylated Pep21 on streptavidin biosensors, Fab serially diluted from 1000 to 62.5 nM, 30°C, PBS + 1% BSA, association 60 s, dissociation 180 s, global fit 1:1 Langmuir
Settings: both partners purified

B1: P3-43 Fab (m43.151 P100K_H) (Fab, V domains shown)
VH: QVHLVQSGAEVKKPGASVKVSCKASGYTFTSYAIHWVRQAPGQRLEWMGWIKGGNGNTRYSQKFQDRVTITRDTSASTAYMELSSLRSEDTAVYYCALLTVITKDDAFDIWGQGTMVTVSS
VL: not shown
notes: as the heavy chain of m5 (PDB 7LKG) with the stated change; own structure deposited here; as the light chain of m5; source: Fab produced from the antibody
Kd: 8.9 nM
